From patent publication US20240294622A1 (SUZHOU TRANSCENTA THERAPEUTICS, published 2024)

Columns and labels:
[1] = target: T1, HGREM1-His (ACRO) (human, UniProt O60565 25-184); test: ELISA, coated hGREM1 (ACRO)
T1 construct: Lys25-Asp184 of NP_037504 with C-terminal polyhistidine tag (ACRO GR1-H52H3); they are put here; also called hGREM1 (ACRO); human gremlin (ACRO)
T1 sequence: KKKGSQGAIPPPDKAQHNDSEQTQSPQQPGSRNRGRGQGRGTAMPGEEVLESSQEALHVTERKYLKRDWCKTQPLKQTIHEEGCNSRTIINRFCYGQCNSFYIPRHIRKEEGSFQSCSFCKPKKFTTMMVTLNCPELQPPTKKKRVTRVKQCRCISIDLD

[2] = target: T1, HGREM1-His (ACRO); test: blocking ELISA, Human Gremlin-1 binding to BMP2; column OD450
Procedure: In addition, the ability of serial dilutions of antibodies provided herein to block Gremlin binding to human BMP2/4/7 was also examined via ELISA. Plates were coated with recombinant human BMP2/4/7 (0.5 μg/ml) overnight and then serial dilutions of antibodies were incubated with 1 μg/ml of human Gremlin-his modified for 1 h at RT before this complex was added to coated plates and allowed to incubate for an additional hour at RT. The plates were then washed and added with anti-his HRP (GenScript). Plates were then developed with a TMB solution and stopped by adding stop solution. The plates were read on a plate reader at 450 nm. […] The chimeric anti-gremlin 1 antibodies (69H5-chi) and chimeric anti-gremlin 1 antibodies (22F1-chi) also can inhibit the binding of gremlin to BMP2 and BMP4 (see, FIG. 3E and FIG. 3F). The chimeric anti-gremlin 1 antibodies (56C11-chi) can inhibit the binding of gremlin to BMP2 (see, FIG. 3E).

[3] = target: T2, human gremlin-2 (R&D) (human, UniProt Q9H772 22-168, limits assumed); test: ELISA on coated human gremlin-2 (R&D, 0.5ug/ml), anti-mouse IgG-HRP
T2 construct: also called GREM2
T2 sequence (looked up): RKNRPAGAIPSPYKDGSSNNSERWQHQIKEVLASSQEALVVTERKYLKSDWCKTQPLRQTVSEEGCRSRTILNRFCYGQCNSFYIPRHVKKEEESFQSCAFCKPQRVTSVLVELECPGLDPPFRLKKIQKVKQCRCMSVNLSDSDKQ
Procedure: In addition, the specificity of the binding of 14E3 and a benchmark antibody was assessed with ELISA. Briefly, clear polystyrene plates (BEAVER) were coated with 100 μl/well of a […] hGREM1 (ACRO), or human gremlin-2 (R&D), human COCO (R&D) and human DAN protein (R&D) in high pH coating buffer overnight at 4° C. Then the plates were washed once on an automatic plate washer using PBS+0.1% Tween 20 (Sigma). 100 μl of block solution consisting of PBS+1% BSA+1% normal goat serum+0.5% Tween 20 (Sigma) was added to each well and incubated at room temperature for 2 hours. Then 100 ul of antibodies in antibody dilution buffer containing PBS+1% BSA+1% normal goat serum+0.01% Tween 20 starting from 2 μg/ml and then 5 fold serial dilution were added to each well of the plate and incubated for 1 hours at room temperature. Afterward the plates were washed three times with 200 ul of PBS+0.1% Tween20 followed by adding 100 μl/well 1:10000 Goat anti mouse IgG-HRP (Abcam), and incubate for 1 hour at room temperature. They were then washed 3× with PBS+0.1% Tween20. Finally, 100 µl/well of TMB (Pierce) was added to each well and after 5 minutes add 50 ul of stop solution to each well. The plates were read on a Multiscan FC microplate reader (Thermo Scientific) at […].

[4] = target: T1, HGREM1-His (ACRO); test: competition ELISA on captured human gremlin (Acro,0.5ug/ml), upper panel: hybridoma 14E3 titrated against a fixed amount of chimeric 22F1-C, bound chimeric antibody detected
Procedure: Epitope binning of anti-gremlin hybridoma antibodies were performed using a competition ELISA assay. Clear polystyrene plates (BEAVER) were coated with 100 μl/well of a 0.5 μg/ml hGREM1 (ACRO) in high pH coating buffer overnight at 4° C. Then the plates were washed once on an automatic plate washer using PBS+0.1% Tween 20 (Sigma). 100 μl of block solution consisting of PBS+1% BSA+1% normal goat serum+0.05% Tween 20 (Sigma) was added to each well and incubated at room temperature for 2 hours. Then 50 μl/well of 20 μg/ml saturated antibodies (hybridoma antibodies) in antibody dilution buffer (PBS+1% BSA+1% normal goat serum+0.01% Tween 20) were then added to each well of the plate and incubate for 1 hour. Then add 50 μl/well of 40 ng/ml competitive antibodies (chimeric antibodies, e.g., 14E3-C, 22F1-C, 56C11-C, and 69H5-C) to each well of the plate and incubate for another 1 hour at room temperature. […] The plates were read on a plate reader at 450 nm. The failure of the second antibody to bind in the presence of saturating quantities of the first antibody indicates the two antibodies were in the same epitope bin; the success of the second antibody to bind in the presence of the saturating quantities of the first antibody indicates the two antibodies were in different epitope bins. […]
The amount of chimeric antibody bound to gremlin were determined.

Binder	EC50 [1] [mg/L]	IC50 [2] [mg/L]	binding result [3]	IC50 (read off the curve) [4] [mg/L]
36F5 (antibody, V domains shown, mouse hybridoma antibody; also called hybridoma 36F5) VH: QVQLQQSGAELARPGASVKLSCKASGYSFTSSGIGWVKQRSGQGLEWIGEIYPRSGNTYNNEKFKGKATLTADKSSSTVYMELRSLTSEDSAVYFCVREAYSHHYYAMDYWGQGTSVTVFS VL: DVLMTQTPLSLPVSLGGQASISCRSSQSLLHSNGNTYLEWYLQKPGQSPKLLIYKVSNRFSGVPDRLSGSGSGTDFTLKISRVEAEDLGVYYCFQGSHVPFTFGSGTKLEIN	0.00587	0.604		
14E3 (antibody, V domains shown, mouse hybridoma antibody; also called hybridoma 14E3; anti-gremlin1 antibody 14E3) VH: QIQLVQSGPELKKPGETVKISCKTSGSTFTTYGMAWMKQAPGKGLTWMGWINTLSGEPTYADDFKGRFAFSLKTSANTAYLQINNLKNEDAATYFCAREPMDYWGQGTSVIVSS VL: not shown	0.0136		no binding (tested: 1 ug/ml)	~1
